From article PMC7409301, “Natural Killer Cell Activation Receptor NKp30 Oligomerization Depends on Its N-Glycosylation” (Cancers, 2020)
Where “and” joins values, the source holds several entries; their conditions need not be identical. Equal entries are not always repeated.

Assays:
[1] = biological target: the molecule itself; assay: AUC; sedimentation velocity of wild-type B7-H6 at 0.5 mg/mL, c(s) distribution
SEC-MALS = conditions: glycan lost; control: glycosylated NKp30_Stalk (HEK293T or HEK293S GnTI−)
[2] = sedimentation velocity AUC; conditions: glycan lost; control: NKp30_Stalk from HEK293S GnTI− (uniform glycans)

Row | Protein | stoichiometry N [1] | oligomerisation (SEC-MALS) | oligomerisation [2]
1 | wild-type B7-H6 extracellular portion (with the odd cysteine Cys212) (domain or fragment, UniProt Q68D85 25-245, looked up, N-glycosylated; disulfide bridges not linked correctly by mass spectrometry, entire extracellular portion Asp25-Leu245 with two Ig-like domains; source: HEK293 cells, transient transfection, secreted, purified (IMAC, SEC); not shown: three amino acids left after cleavage of the secretion signal, N-terminal, kept) DLKVEMMAGGTQITPLNDNVTIFCNIFYSQPLNITSMGITWFWKSLTFDKEVKVFEFFGDHQEAFRPGAIVSPWRLKSGDASLRLPGIQLEEAGEYRCEVVVTPLKAQGTVQLEVVASPASRLLLDQVGMKENEDKYMCESSGFYPEAINITWEKQTQKFPHPIEISEDVITGPTIKNMDGTFNVTSCLKLNSSQEDPGTVYQCVVRHASLHTPLRSNFTL | 2 and 4 | – | –
2 | NKp30: Endo F1 (protein) parent chain: MAWMLLLILIMVHPGSCALWVSQPPEIRTLEGSSAFLPCSFNASQGRLAIGSVTWFRDEVVPGKEVRNGTPEFRGRLAPLASSRFLHDHQAELHIRDVRGHDASIYVCRVEVLGLGVGTGNGTRLVVEKEHPQLGAGTVLLLRAGFYAVSFLSVAVGSTVYYQGKCLTWKGPRRQLPAVVPAPLPPPCGSSAHLLPPVPGG | – | abolishes | abolishes
